Data published in patent US20060121580A1 (CRUCELL HOLLAND B V, published 2006).
Numbering of substitutions follows the chain as printed.

B1: human monoclonal anti-SARS-CoV antibody 03-015 (antibody, V domains shown)
VH: EVQLVESGGGVVRPGGSLRLSCAASGFTFDDYGMSWVRQAPGKGLEWVSGINWNGGSTGYADSVKGRFTISRDNAKNSLYLQMNSLRAEDTAVYYCARGLSLRPWGQGTLVTVSS
VL: SSELTQDPAESVALGQTVRITCQGDSLRSYYASWYQQKPGQAPVLVIYGKNNRPSGIPDRFSGSSSGNTASLTITGAQAEDEADYYCNSRDSSGNHVVFGGGTKLTVLG
B2: human monoclonal anti-SARS-CoV antibody 03-006 (antibody, V domains shown)
VH: EVQLVESGGGLVQPGGSLRLSCAASGFTFSGYPMHWVRQAPGKGLEWVAVISYDGSNKYYADSVKGRFTISRDNSKNTLYLQMNSLRAEDTAVYYCAKDGSPRTPSFDYWGQGTLVTVSS
VL: DIQMTQSPHSLSASVGDRVTITCRASQGISNYLAWYQQKPGKVPKLLIYAASTLQSGVPSRFSGSGSGTDFTLTISSLQPEDVGVYYCQQRFRTPVTFGQGTKLEIKR
B3: human monoclonal anti-SARS-CoV antibody 03-013 (antibody, V domains shown)
VH: EVQLVESGGGLVQPGGSLRLSCAASGFTFSDHYMDWVRQAPGKGLEWVGRTRNKANSYTTEYAASVKGRFTISRDDSKNSLYLQMNSLKTEDTAVYYCAKGLTPLYFDYWGQGTLVTVSS
VL: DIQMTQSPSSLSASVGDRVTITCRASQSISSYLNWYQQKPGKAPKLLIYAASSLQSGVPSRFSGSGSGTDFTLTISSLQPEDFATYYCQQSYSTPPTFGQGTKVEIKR
B4: human monoclonal anti-SARS-CoV antibody 03-014 (antibody, V domains shown)
VH: B3 VH with K100R, L102I, T103S, L105F
VL: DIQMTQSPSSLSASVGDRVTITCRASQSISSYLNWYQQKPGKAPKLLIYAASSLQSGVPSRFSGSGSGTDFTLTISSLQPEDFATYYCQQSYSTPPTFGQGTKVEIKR
B5: human monoclonal anti-SARS-CoV antibody 03-002 (antibody, V domains shown)
VH: EVQLVESGGGLVKPGGSLRLSCAASGFTFSGYSMSWVRQAPGKGLEWVGRTRNKANSYTTEYAASVKGRFTISRDDSKNSLYLQMNSLKTEDTAVYYCARYYSRSLKAFDYWGQGTLVTVSS
VL: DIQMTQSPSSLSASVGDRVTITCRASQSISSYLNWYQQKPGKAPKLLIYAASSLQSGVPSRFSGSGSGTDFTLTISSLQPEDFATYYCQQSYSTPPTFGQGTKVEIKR
B6: human monoclonal anti-SARS-CoV antibody 03-009 (antibody, V domains shown)
VH: EVQLVESGGGVVQPGRSLRLSCAASGFTFSDYPMNWVRQAPGKGLEWVSSISGSGGSTYYADSVKGRFTISRDNSKNTLYLQMNSLRAEDTAVYYCAKGLFMVTTYAFDYWGQGTLVTVSS
VL: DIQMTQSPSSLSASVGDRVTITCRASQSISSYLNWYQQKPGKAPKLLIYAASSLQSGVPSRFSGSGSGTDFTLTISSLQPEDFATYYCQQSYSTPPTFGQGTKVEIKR
B7: human monoclonal anti-SARS-CoV antibody 03-001 (antibody, V domains shown)
VH: EVQLVESGGGLVKPGGSLRLSCAASGFTFSGYSMNWVRQAPGKGLEWVSSISGGSTYYADSRKGRFTISRDNSKNTLYLQMNNLRAEDTAVYYCARHRFRHVFDYWGQGTLVTVSS
VL: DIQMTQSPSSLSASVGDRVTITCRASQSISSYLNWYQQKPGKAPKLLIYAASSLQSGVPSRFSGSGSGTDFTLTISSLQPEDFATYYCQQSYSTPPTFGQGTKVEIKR

The binders below were run against full length S protein of SARS-CoV expressed on HEK293T cells (SARS-CoV strain Frankfurt 1, UniProt P59594 14-1255) (assay: flow cytometry, 10 µg/ml IgG on transfected HEK293T cells).

Row | Binder | binding result
1 | B1 | binds
2 | B2 | binds
3 | B3 | binds

The binders below were run against S565 fragment (amino acids 1-565 of the S protein of SARS-CoV), myc-His tagged (SARS-CoV strain Frankfurt 1, UniProt P59594 14-565) (assay: IgG ELISA on captured S565).

Row | Binder | binding result
4 | B1 | no binding
5 | B2 | binds
6 | B3 | binds
7 | B4 | binds

What follows are binders tested against S318-510 fragment (amino acids 318-510 of the S protein of SARS-CoV Frankfurt 1), myc-His tagged (SARS-CoV strain Frankfurt 1, UniProt P59594 318-510) (assay: IgG ELISA on S318-510 fragment).

Row | Binder | binding result
8 | B5 | no binding
9 | B6 | no binding
10 | B1 | no binding
11 | B7 | no binding
12 | B2 | binds
13 | B3 | binds
14 | B4 | binds
